Laboratory results published in the RNAGym collection of RNA variant scans (doi:10.7554/elife.80360).

B1: CPEB3 Ribozyme (parent)
chain: GGGGGCCACAGCAGAAGCGUUCACGUCGCGGCCCCUGUCAGAUUCUGGUGAAUCUGCGAAUUCUGCUGU

Variants of: B1
Assay: self-cleavage, relative activity (ratio to wild type); higher = more cleavage; co-transcriptional

| Variant | self-cleavage |
| --- | --- |
| A10C G17A | 0.48 |
| A10C G17C | 0.0999 |
| A10C G14U | 0.411 |
| A10C G14A | 0.363 |
| A10C A42U | 0.921 |
| A10C C24A | 0.738 |
| A10C C24U | 0.891 |
| A10C A59U | 0.82 |
| A10C U61G | 0.768 |
| A10C U61A | 0.937 |
| A10C U61C | 0.763 |
| A10G A13C | 0.182 |
| A10C U49C | 1.04 |
| A10C U49A | 1.02 |
| A10C U26C | 1.02 |
| A10C U26A | 0.943 |
| A10C U26G | 0.885 |
| A10C C57A | 0.351 |
| A10C C57U | 0.275 |
| A10C C57G | 0.292 |
| A10C A52G | 0.988 |
| C9U U44A | 1.02 |
| C9U U44C | 0.997 |
| A10C C35U | 0.992 |

| Variant | self-cleavage |
| --- | --- |
| A10C C35G | 0.631 |
| A10C C35A | 0.325 |
| A10C U21A | 0.959 |
| A10C U69C | 1.05 |
| A10C U69A | 1.06 |
| A10C U69G | 1.05 |
| A10C A40U | 0.867 |
| A10C A40C | 0.378 |
| A10C A15G | 0.947 |
| A10C A15C | 0.771 |
| A10C A15U | 0.77 |
| A10C G65A | 0.798 |
| A10C G65U | 0.655 |
| A10C G65C | 0.637 |
| A10C A23C | 0.938 |
| A10C A23U | 0.983 |
| A10C A60C | 0.28 |
| A10C A60G | 0.853 |
| A10C A60U | 0.484 |
| C9U U46A | 0.964 |
| C9U U46G | 1.04 |
| C9U U46C | 1.02 |
| A10C C12A | 0.439 |
| A10C C12U | 0.882 |

| Variant | self-cleavage |
| --- | --- |
| A10C C12G | 0.659 |
| C9U U43C | 1.02 |
| C9U U43A | 0.971 |
| C9U G47A | 1.06 |
| A10C U62C | 0.72 |
| A10C U62G | 0.772 |
| A10C G19A | 0.162 |
| A10C C22U | 0.351 |
| A10C C22G | 0.141 |
| A10C G48A | 1.02 |
| A10C U64G | 0.804 |
| A10G | 0.94 |
| A10C | 1.01 |
| C9U G37A | 0.364 |
| A10C A13U | 0.484 |
| A10C A13G | 0.911 |
| A10C A13C | 0.638 |
| C9U U62G | 0.987 |
| A10C U53C | 0.863 |
| A10C U53A | 0.976 |
| C9U U67A | 1.01 |
| C9U U67C | 1.02 |
| C9U U67G | 1.01 |
| A10C G58C | 0.965 |

| Variant | self-cleavage |
| --- | --- |
| A10C G58U | 0.999 |
| A10C A51U | 1.02 |
| A10C A51G | 1.06 |
| A10C A51C | 0.978 |
| C9U G56C | 0.959 |
| C9U G56A | 0.992 |
| A10C G50A | 0.971 |
| C9U U26C | 0.999 |
| A10C G28U | 0.12 |
| A10C G28A | 0.125 |
| C9U U21C | 0.999 |
| C9U G50U | 1 |
| C9U G50C | 1.02 |
| C9U U20A | 0.148 |
| C9U U20C | 0.186 |
| A10C G31U | 0.913 |
| A10C G31A | 0.968 |
| A10C C32A | 0.908 |
| A10C C32U | 1.04 |
| C9U U38C | 1.02 |
| C9U U38A | 0.931 |
| C9U U38G | 0.306 |
| A10C U46A | 1.03 |
| A10C U46G | 0.953 |

| Variant | self-cleavage |
| --- | --- |
| A10C C18G | 0.196 |
| A10C C34A | 0.981 |
| A10C C34U | 0.986 |
| A10C C63A | 0.676 |
| A10C C63U | 1.02 |
| A10C C39A | 0.861 |
| A10C C39G | 0.987 |
| A10C U20A | 0.205 |
| A10C U20C | 0.286 |
| A10C U20G | 0.0821 |
| A10C A16U | 0.818 |
| A10C A16C | 0.252 |
| A10C A16G | 0.967 |
| A10C U55C | 0.911 |
| A10C U55A | 0.824 |
| C9U G48A | 1.03 |
| C9U G48U | 1.03 |
| A10C G11A | 0.887 |
| A10C G11U | 0.913 |
| C9U U55G | 0.953 |
| C9U U55C | 1.02 |
| C9U U55A | 0.932 |
| A10C G25C | 0.103 |
| A10C G25A | 0.212 |

| Variant | self-cleavage |
| --- | --- |
| A10C C45U | 1 |
| A10C C45A | 0.97 |
| A10C G47U | 1.01 |
| A10C G47A | 1.04 |
| A10C U67G | 1.03 |
| A10C U67C | 1.01 |
| C9U G68U | 1.02 |
| C9U G68A | 1.05 |
| A10C G30C | 0.923 |
| A10C G30A | 0.994 |
| A10C G30U | 0.753 |
| C9U G31U | 0.977 |
| C9U G31A | 1 |
| C9U G31C | 0.38 |
| A10C C29A | 0.596 |
| A10C C29G | 0.165 |
| C9U G58C | 1.02 |
| C9U G65U | 0.845 |
| C9U G65C | 0.802 |
| A10C G68C | 1.04 |
| A10C G68A | 1.03 |
| A10C G68U | 1.03 |
| A10C U38C | 1 |
| C9U U69G | 1.07 |

| Variant | self-cleavage |
| --- | --- |
| C9U U69A | 1.03 |
| C9U U36G | 0.214 |
| A10C G37U | 0.244 |
| A10C G37C | 0.23 |
| C9U U49G | 0.957 |
| C9U U49A | 0.99 |
| C9U U49C | 1.01 |
| A10C G56C | 0.772 |
| C9U G30U | 0.837 |
| A10C U44C | 0.92 |
| A10C U44A | 0.959 |
| C9U U53G | 0.984 |
| C9U U53A | 0.961 |
| C9U G41A | 0.923 |
| C9U U64C | 0.999 |
| C9U U64A | 1.04 |
| C9U U64G | 0.981 |
| C9U U61G | 0.985 |
| C9U U61A | 1 |
| A10C C33G | 0.988 |
| A10C C33A | 0.965 |
| A10C C27A | 0.666 |
| A10C C27U | 0.508 |
